Source: US20050267025A1, “Compositions and methods for treatment of infectious and inflammatory diseases” (priority 2002, published 2005)

Test system: human monocytes
Type: cell-based

B1: Rv0577: ~32 kDa IL-10 producing protein encoded by Rv0577 (cfp32), SEQ ID NO: 2 (protein, listed as Mycobacterium tuberculosis)
chain: MPKRSEYRQGTPNWVDLQTTDQSAAKKFYTSLFGWGYDDNPVPGGGGVYSMATLNGEAVAAIAPMPPGAPEGMPPIWNTYIAVDDVDAVVDKVVPGGGQVMMPAFDIGDAGRMSFITDPTGAAVGLWQANRHIGATLVNETGTLIWNELLTDKPDLALAFYEAVVGLTHSSMEIAAGQNYRVLKAGDAEVGGCMEPPMPGVPNHWHVYFAVDDADATAAKAAAAGGQVIAEPADIPSVGRFAVLSDPQGAIFSVLKPAPQQ
  IL-10 inducing activity of Mtb attributed to Rv0577: ~60%
